Experimental findings from the nanobody polyreactivity screen of Harvey et al. (2022) are described below.

This data set in a line: yeast display, Sf9 membrane polyspecificity reagent, FACS + sequencing; frameworks hold sequencing errors. The gist of the method:
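Genes from sorted yeast were amplified by colony PCR, read by MiSeq 2 × 250 sequencing and filtered on CDR length. These cells carried a synthetic nanobody library in Saccharomyces cerevisiae BJ5465 and were sorted by FACS into low and high (top ~1%) gates on anti-HA and streptavidin fluorescence. Polyreactivity is labelled according to the gate of origin.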
As to “QVQLVDSVGGLVEAGGILRLSCAASGNTFGRNAMGWYRQEPGKESELVAAISFSGSRPYYADSVKGRFTISRDNAKYTVYLQRNSLKPEDTAVYYCNKRGADWTGFFYYQYDFWGQGTQVTVSS”, the “polyreactivity (PSR sort gate)” value is recorded as “low polyreactivity”.

As for “QVQLVESGGGIVQAGGSLRLSCPASGIIFYLNPMGWSRQAPGKERELVAAITRGGSTYYADSVKGRFTISRDNEKNTVYLQMNSLKPEDTAVYYWAAKHGPGYRRWYDYWGQGTQVTVSS”, the “polyreactivity (PSR sort gate)” value was “high polyreactivity”.

As to “QVQLVDSGGGLVQAGGSLRLSCAASGIIFSVYAMGWYRQAPGKERELVAAITYSGGSTYYADSVKGRFTISRDNAKNTVYLQMNSLKPEDTAVYYCNAYRYNALPWRYVGYDYWGQGTQVTVSS”, the “polyreactivity (PSR sort gate)” value is reported as “low polyreactivity”.

Consider “QVQLVESGGGLVQAGGSLRLSCAASGYTFFYAMGWYRQAPGKERQLVAGISRAGRTKYADSVKGRFTISRDNAKNTVYLQMNSLKPEDTAVYYCAAYARVSSSRFDYWGQGTQVTVSS”, for which the “polyreactivity (PSR sort gate)” value was “high polyreactivity”.

Regarding “QVHLVDSGGGLVQAGGSLRLSCAASGSIISVYFMEWYRQAPGKERELVASITSGASTNYADSVKGRFTISRDNAKNTVYLQINSLKPEDTAVYYCCARDWYDGFYYWGQGTQVTVSS”, the “polyreactivity (PSR sort gate)” value is “low polyreactivity”.

With “QVQLVESGGGLVQAGGSLRLSCAASGSTFLYYTMGWYRQAPGKERELVAAITGSGTSTYYADSVKGRFTISRDNAKNTVYLQMNSLKPEDTAVYYCAARGHGRLYYWGQGTQVTVSS”, the “polyreactivity (PSR sort gate)” value is given as “high polyreactivity”.

For the sequence “QVQLVESGGGLVQAGGSLRLSCAASGRIFYYNAMGWYRQAPGKERDLVAAITYSGTSTYYADSVKGRFTISRDNAKNTVYLQINSLKPEDTAVYYCAVDSTDQAPPTYDYWGQGTQVTVSS”, the “polyreactivity (PSR sort gate)” value is listed as “low polyreactivity”.

For “QVQLVESGGGLVQAGGSLRLSCAASGLTFKVYAMGWYRQAPGKERELVAAISWSGGSTYYADSVKGRFTISRDNAKNTVYLQMNSLKPEDTAVYYCAVEPSYYVVFFPYEYWGQGTQVTVSS”, the “polyreactivity (PSR sort gate)” value was “low polyreactivity”.

Consider “QVHLVESGGGLVQAGGSLRLSCAASGLPFSQNAMGWNRQAPGKERELVAAINTSDDSTYYADSVKGRFTISRDNAKNTVYLQMNSLKPEDTAVYDCAVDGYWYGGIFYYWGQGTQVTVSS”, for which the “polyreactivity (PSR sort gate)” value is listed as “low polyreactivity”.

With “QVQIVDSGGGLVQAGGSLRLSCAASGSTFKPYAMGWYRQAPGKERELVAAITFSGGSTYYADSVKGRFTISRDNAKNTVYLQMNSLKPEDTAVYDCAARAFKFNGYYYWGQGTQVTVSS”, the “polyreactivity (PSR sort gate)” value is listed as “high polyreactivity”.

“QVQLVESGGGLVQAGGSLRLSCAASGSTFSKYAMGWYRQAPGKERELVAAINYGGTSTYYADSVKGRFTISRDNAKNTVYLQMNSLKPEDTAVYYCAVIYRRLYTGGQNPYDYWGQGTQVTVSS”: the “polyreactivity (PSR sort gate)” value is on record as “high polyreactivity”.

On to “QVQLVESGGGLVQAGGSLRLCCAATGSIFPGNAMGWYRQAPGKEMELVATNTWSGGSTYYADSVKGRFTISRDNAKNTVYFQMKSLKPVDTAVYYCKADSSWFYQWKDYGMYDYWGQGTQVTVSS”, for which the “polyreactivity (PSR sort gate)” value is given as “low polyreactivity”.

For “QVQLVESGGGLVQAGGSLRLSCAACGRTFRFYAMGWYRKAPGKERELVAAISKSGGSTYYADSVKGRFTISRDNEKNTVYLQMNSLKPEDTAVYYCAAQTYLYDYKYWGQGTQVTVSS”, the “polyreactivity (PSR sort gate)” value is given as “high polyreactivity”.

For “QVQLVESGGGLVQAGGSLRLSCAASAIIFYTYAMGWYRQAPGKERELVAAISSGGRTTYADSVKGRFTISRDNAKTTVYFQMNSLKPEDTAVYYCAARLFRSRHAASPFIRSIYGYWGQGTQVTVSS”, the “polyreactivity (PSR sort gate)” value is given as “high polyreactivity”.

In the case of “QIQLVESCGGLVQPGGSLRLSCAASGFTFYRYSRGWYRQAPGKERELVAPISTSGVSTYYADSVKGRFTISRDNAKNTVYLQMNSLKPEDTAVYYWAASAGPRASYYYWGQGTQVTVSS”, the “polyreactivity (PSR sort gate)” value was “high polyreactivity”.

Regarding “QVQLVESGGRLVQAGGSLRLRCAASGFTFGYNDMGWYRPAPGKERELLAGIRSGDDTNYADSVKGRFTISRDNAKNTDYLQMNSLKPEDTAVYYCAADVVNIATAEYDYCGQGTQVTVSS”, the “polyreactivity (PSR sort gate)” value is listed as “low polyreactivity”.

Take “QVQLVESGGGLFQAGGSLRLSCAASGFTFSNYAMGWYRKAPGKERELVAAITRRGGRTRYADSVKGRFTISRDNAKNTVYLQMNSLKPEDTAVYYCARSRYRYIVTTLYLYDYWGQGTQVTVSS”: the “polyreactivity (PSR sort gate)” value was “high polyreactivity”.

“QVQLVESGGGLVQARGSLRLSSAAYGRTLYSYAMGWYRQAPGKERELVATIRRSGGSTNYADSVKGRFTISRDNAKNTVYLQMNSLKPEDTAVYYCAAVSFKPEYYYWGQGTQVTVSS”: the “polyreactivity (PSR sort gate)” value is listed as “high polyreactivity”.

As to “QVQLVESGGGLVQAGGSLRLSCAASGISFGVYSLGWYRQAPGKERELVAAISSSGTSTYYADSVKGRFTISRDNAKNTVYLQMNSLKPEDTAVYYCAADYKRNQEVDYWGQGTQVTVSS”, the “polyreactivity (PSR sort gate)” value is listed as “high polyreactivity”.

With “QVQLVESGGGLVQAGGSLRLSCAASGSILDLNAMGWYRQAPGKERELVAAISYSGDSTYYADSVKGRFTISRDNAKNTVYLQMNSLKPEDTAVYYCAAEVYGAVFDYWGQGTQVTVSS”, the “polyreactivity (PSR sort gate)” value is recorded as “low polyreactivity”.

Regarding “QVQLVESGGGLVQAGGSLRLSCAASGLTFVQYAMGWYRQAPGKERELVATISKSGGFTYYADSVKGRFTISRDNATNTVYLQMNSLKPEDTAVYYCAAAWYYSSRGFHASWGHDYWGQGTQVTVSS”, the “polyreactivity (PSR sort gate)” value is listed as “low polyreactivity”.

“QVQLVESGGGLVQAGGSLRLSCAASGSTFGYNAMGWYRQAPGKERELVARITSSGGSTYYADSVKGRFTISRDNAKNTVYLQMNSLKPEDTAVYYCAAGYPYRAVYRYYYWGQGTQVTVSS”: the “polyreactivity (PSR sort gate)” value is reported as “high polyreactivity”.

Regarding “QVQLVESGGGLVQAGGSLRLSCDASGRIFHYNSMGWYRQAPGKERELVAAISTGGSTNYADSVKGRFTISRDNAKNTVYLQMNSLKPEDTAVYYCAADHPVTYPTSKFDYWGQGTQVTVSS”, the “polyreactivity (PSR sort gate)” value was “low polyreactivity”.

For “QVHLVESGGGLVQAGGSLRLSCAASGYTFSRNAMGWYRQAPGKERELVASISSRGGSTRYADSVKGRFTISRDNAKNTVYLQMNSLKPEDTAVYYCAVRGLYSPFTYGYWGQGTQVTVSS”, the “polyreactivity (PSR sort gate)” value was “high polyreactivity”.

“QDQLGDSGGGLVQAGGSLRLSCAASGFTFGKYAMGWYRQAPGKERELVAAISWSGASTYYADSVKGRFTISRDNAMNTVYLQMNSLKAEDTALYYCAKRDYSYPWFRDYYYWGQGTLVTVSS”: the “polyreactivity (PSR sort gate)” value is “low polyreactivity”.

As to “QVQLVESGGGLVQAGGSLRLSCAASGYIFGPNAMGWYRQAPGKERELVAAISSRGDSTFYADSVKGRFTISRDNAKNTDYLQMNSLKPEDTAVYYCAAEEITQFYVGSYLDDYWGQGTQVTVSS”, the “polyreactivity (PSR sort gate)” value is “low polyreactivity”.

Turning to “QVQLVESGGGLVQAGGSLRLSCAASGRIFFYYAMGWYRQAPGKERELVATITASGDSTYYADSVKGRFTISRDNAMDTVYLQMNSLKPEDTAVYYCAADDGDYYEVDYWGQGTQVTVSS”, the “polyreactivity (PSR sort gate)” value is “low polyreactivity”.

“QVQLVESGGGLVQAGGSIRLSCAASGSLFEPYFMGWYRQAPGKERELVAAIRQTGGSTYYADSVKGRFTISRDTAKNTVYLQMNSLKPEDTAVYYCAKDSQTARDFDYWGQGTQGTVSS”: the “polyreactivity (PSR sort gate)” value was “low polyreactivity”.

For “QVQLVESGGGLVQAGGSLRLSFAASGRTFTYNAMGVYRQAPGKERELVAAMTYRGGSTYYADSVKGRFTISRDNAKNTVYLQMNSLKPEDTAVYYCAARVSYYRYNTPHYYYWGQGTQVTVSS”, the “polyreactivity (PSR sort gate)” value is reported as “high polyreactivity”.

Turning to “QVQLVESGGRLVQAGGSLLLSCAASGRIFRLYAMGWNTQAPGKERQLVASISSTGRTNYADSVKGRFTISRDNAKNTVYLQMNCLKPEDTAVYYCNAAVIYRYSQWDYGYWGLGTQVTVSS”, the “polyreactivity (PSR sort gate)” value was “high polyreactivity”.

On to “QVQLVESGGGLVQAGGSLRLRCAASGIIFYRNVMGWYRQAPGKERELVAAISGRGGSTYYADSVKGRFTISRDNAKNTVYLQMNILKPEETAVYYCATDTRTWRFTRGAWYTYGSDYWGQGTQVTVSS”, for which the “polyreactivity (PSR sort gate)” value is on record as “high polyreactivity”.

As for “QDQLVESGGGLVQAGGSLRLSCAASGSSFGYYAMGWYRQAPGKERELVASISWRGVSTYYADSVKGRFTISRDNAKNTVYIQMNSLKPEDTAVYYCATVYRWSFDYWGQGTQVTVSS”, the “polyreactivity (PSR sort gate)” value is given as “low polyreactivity”.

“QVQLVESGGGLVQAGGSLRLSCPASGFTFTIYAMGWYRQAPGKERELLATISGRAGRTYYADSVKGRFTISRDNAKNTVYLQMNSLKPEDTAVYDCAARVWYQGYKSMGYWGQGTQVTVSS”: the “polyreactivity (PSR sort gate)” value is given as “high polyreactivity”.

In the case of “QVQLVESGGGLVHAGGSIRLSCAASGSIFRLYAMGWYRQAPGKERELVATISQRGGRTYYADSVKGRFTISRDNAKNTVYLQMNILKPEVTAVYYCNADHYYPWLDYWGLGTQVTVSS”, the “polyreactivity (PSR sort gate)” value was “high polyreactivity”.

Regarding “QVQLVESGGGLVQAGGSLRLSCAASGRIFGVNAMGWYRQAPGKERELVAVISSGGSTYYADSVKGRFTISRDNAKNTVYLQMNSLKPEDTAVYYCNAVVGRWFPYNLSDYWGQGTQVTVSS”, the “polyreactivity (PSR sort gate)” value is on record as “low polyreactivity”.

On to “QVQLVESGGGLVQAGGSLRLSCAASGSTFSYNAMGWYRQAPGKERELVAAISNGGSTNYADSVKGRFTISRDNAKNTVSLQMNSLKPEDTAVYYCAAHTYSELSWLVVYPYDYWGQGTQVTVSS”, for which the “polyreactivity (PSR sort gate)” value is given as “low polyreactivity”.

As for “QVQLVESGGGLVQAGGSLRLSCAASGYTFSHYAMGWYRQAPGKERELVAGITWSGGSTYYADSVKGRFTISRENSKNTVYLQMNSLKPEDTSVYYCAAKYYWYYSYSGIPLFDYWGQGTQVTVSS”, the “polyreactivity (PSR sort gate)” value is on record as “low polyreactivity”.

On to “QVHLVESGGGLVQAGGSLRLSCAASGIISGGNAMGWYRQAPGKDRELVASINSGGSTNYADSVKGRFTISRDNALNSLYLKMNSLKPDDTAVYYGAGDYIDSTAYDYWGQGTKVTVSS”, for which the “polyreactivity (PSR sort gate)” value was “low polyreactivity”.

Turning to “QVQLVESGGGLVQAGGSLRLSCAASGGIFKRNTMGWYRLAPGKERELVAAISRSGGSTYYADSVKGRFTISRDNAKNTVYLQMNSLKPEDTAVYYCARRFPYNYYVYGEDYWGQGTQVTVSS”, the “polyreactivity (PSR sort gate)” value is given as “high polyreactivity”.

Take “QVQLVESCGGLVQAGGSLRLSCAASGSTFGYYAMGWYRQAPGKETELVAAISSRGGSTYYADSVKGRFTISRDNAKNTVYLQMNSLKPEDTADYYCAARGLFFRNRYGYWGQGTQVTVSS”: the “polyreactivity (PSR sort gate)” value was “high polyreactivity”.
